Experimental data: article doi:10.1101/2020.04.11.036434

Molecular target: PTEN (WT), recombinant insect-cell purified (UniProt P60484)
Test: SPR

Substance	fold decrease in affinity against P-Rex2 (WT)
P-Rex2 (674-683) P-Rex1 sequence-swap mutant	4 fold
P-Rex2 (904-912) P-Rex1 sequence-swap mutant	7 fold
P-Rex2 (922-931) P-Rex1 sequence-swap mutant	6 fold
